Results: the supplement of paper PMC10567573

B1: IKZF1 (parent)
chain: HIKLHSGEKPFKCHLCNYACRRRD
B2: C9orf25 (parent)
chain: LARKGSLKNGSMGSPVNQQPKKNN

Variants of: B1
Assay: protein stability index of a GFP-peptide fusion (GPS, HEK-293T) (PSI 1-6); higher = more stable
Details: c terminus: a fixed tail appended
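Note: lentivirally expressed fusions sorted by FACS into six bins by GFP to DsRed ratio, PSI derived from sequencing read proportions per bin multiplied by bin number.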

Protein stability index: each site, then its substitutions
R21: S 1.99, Y 1.58, E 2.27, M 1.79, P 2.39, H 2.27, Q 1.15, T 2.38, G 2.41, L 1.59, K 2.19, W 1.49, F 2.22, N 1.65, V 1.3
R22: S 2.97, M 1.87, Y 2.05, T 2.5, E 1.95, W 3.09, I 1.7, K 1.95, N 1.2, A 1.68, G 1.5, D 1.76, P 1.86, L 1.72, C 1.87, V 1.91, H 2.71, Q 2.2, F 2.03
R23: G 2.04, Q 1.71, A 2.13, N 1.63, H 2.12, L 1.44, S 1.87, T 1.48, C 2.27, E 1.8, K 2.26, W 2.21, M 2.4, V 2.4, Y 1.72, D 2.18, P 2.02, F 2.36, I 2
D24: Y 1.9, I 2.89, E 1.99, K 2.48, M 1.97, Q 1.73, V 2.39, R 2.22, H 2.06, T 2.31, S 1.43, F 2.54, L 2.01, G 2.04, P 2.09, C 2.22, N 1.76, A 2.29

Variants of: B2
Assay: as above
Details: c terminus: a fixed tail appended

Protein stability index of substitutions, site by site:
G10: F 4.25, C 4.33, K 4.35, Q 4.34, A 4.83, S 4.14, Y 4.35, V 4, M 4.85, N 4.99, D 4.61, H 4.67, T 4.81, L 4.65, P 4.86, I 4.76, W 3.89, R 4.12, E 5.04
G5: S 4.8, C 4.29, K 5.05, F 4, T 4.53, D 4.58, P 4.48, Y 3.27, V 4.26, H 4.49, W 4.06, Q 4.6, A 4.5, R 4.34, I 3.99, N 4.07, L 3.55, M 4.06, E 4.82
G13: R 4.36, C 5.04, T 4.79, Y 4.44, H 4.58, A 4.79, F 4.06, K 4.28, M 4.44, E 5.23, Q 4.99, W 3.66, V 4.69, S 3.98, N 4.97, L 4.92, D 4.64, P 4.33, I 4.72
R3: C 4.85, N 4.96, V 4.85, K 4.33, S 4.67, T 4.85, W 4.14, D 5.2, M 4.85, I 4.58, G 5.02, L 4.41, H 4.85, E 4.69, Y 4.73, A 5.05, F 4.54, Q 4.99, P 5.03
L1: N 5.07, W 4.3, M 4.89, K 4.76, F 3.96, E 5.35, A 5.34, V 4.92, R 4.81, T 4.31, S 5.53, G 5.15, Q 4.85, H 4.95, Y 3.77, D 5.07, P 4.76, C 4.32, I 4.66
A2: D 4.87, G 4.76, L 4.58, F 4.04, C 4.12, T 4.54, K 4.13, H 4.77, N 4.59, Q 4.63, W 4.03, P 5.21, Y 4.24, S 4.72, R 3.68, M 4.9, V 4.07, I 4.37, E 5.09
M12: R 4.7, C 4.58, S 4.94, P 4.84, Y 4.4, A 4.42, G 4.49, T 4.74, E 5.29, W 4.11, D 5.06, K 5.15, H 4.42, V 4.98, F 4.56, N 4.43, I 4.42, Q 4.4, L 4.44
K4: G 5.17, Y 4.13, P 4.92, W 4.15, L 4.23, H 4.68, S 4.68, A 4.74, E 4.91, M 4.62, V 4.42, F 5.08, C 4.74, R 3.74, I 3.71, T 5, Q 3.95, D 4.88, N 4.25
S6: Y 4.89, D 5.1, I 4.72, H 4.43, W 4.23, T 4.76, L 4.12, E 5.15, F 4.36, Q 4.76, R 3.99, M 4.38, G 4.64, V 4.29, C 4.05, K 4.37, A 4.33, N 4.69, P 4.59
L7: V 3.39, Y 4.17, W 3.97, H 4.76, C 5.02, F 4.2, E 3.63, G 4.57, A 4.51, K 5.32, R 4.14, M 4.66, P 4.71, D 4.01, Q 5.04, S 4.83, I 4.56, T 4.71, N 4.55
S14: G 4.8, A 4.73, D 4.96, P 5.02, N 4.81, H 4.96, E 4.75, F 4.3, R 4.23, I 4.62, K 4.83, L 4.5, Q 4.74, T 4.42, C 4.06, M 4.97
K8: H 4.7, R 4.57, I 4.76, C 4.32, T 4.53, F 4.42, D 4.2, G 5, E 4.29, Q 4.84, S 4.73, L 4.12, N 5.17, A 4.55, Y 4.11, P 4.71, V 4.43, M 4.45, W 4.1
S11: H 4.15, Q 4.29, W 4.45, V 4.71, L 4.19, A 4.44, E 4.96, K 4.7, P 4.67, M 4.22, D 4.8, G 5.27, Y 4.35, I 4.41, F 4.15, N 4.88, R 4.61, C 4.5, T 4.81
N9: M 4.18, Q 4.92, I 4.64, T 4.78, E 5.29, S 4.94, L 3.67, F 4.21, P 4.36, V 4.42, G 4.74, H 4.63, K 4.17, A 4.6, Y 4.64, R 4.43, W 3.21, D 5.27, C 4.46
